± gives the standard deviation of the averaged measurements.
Test system: ATP
Assay: switch fluorescence ratio, 500 uM ATP over buffer (Cy3 cluster intensity, sum of 5 cycles each) (fold (ratio)); higher = stronger signal-on switching upon ATP binding; sequences stand for … in TCGTCGGCAGCGTCAGATGTGTATAAGAGACAGTTTTTTTTTTTTTTTTTTTTTTTTT…TC
Conditions: aptamer strand: ATP DNA aptamer (quencher-CACCTGGGGGAGTATTGCGGAGGAAGG + anchor), 100 nM annealed; ATP concentration: 500 uM
How it was run: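 Imaging in selection buffer was followed by imaging after 15 min with 500 uM ATP at 22 °C, for Cy3-labelled switching-strand clusters annealed to 100 nM quencher-labelled ATP aptamer on a modified Illumina MiSeq flow-cell. Five of these buffer/ATP cycles ran, separated by NaOH stripping and re-annealing. The fluorescence ratio per cluster is summed target-cycle over summed buffer-cycle Cy3 intensity, averaged per switch-domain sequence; clusters outside 100-1000 RFU were removed.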
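Further: ATP exposure 15 min at 22 °C before imaging.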

Row | Sequence | switch fluorescence ratio
1 | TTCCTTCATT | 1.04 ± 0.016
2 | TATTCCAATA | 0.995 ± 0.03
3 | CTTTGAAGTT | 1.01 ± 0.029
4 | TTGACAGT | 0.9777 ± 0.0022
5 | AGGAAAAAGC | 1.02 ± 0.028
6 | TTTAAAACAG | 1.018 ± 0.0079
7 | CTAATTTGCT | 1.04 ± 0.056
8 | ACCAATAAAC | 1.09 ± 0.033
9 | TTTACCCACT | 1.46 ± 0.073
10 | GCGTTTGGGC | 0.99 ± 0.057
11 | GGGAAGGGCA | 1.01 ± 0.049
12 | TGAGTATGGT | 1.002 ± 0.0059
13 | GCAGGAGGAA | 0.991 ± 0.02
14 | CGCGGCAGGA | 1.02 ± 0.019
15 | ATATTTTGTG | 0.982 ± 0.026
16 | CTGGGTCCGG | 1.01 ± 0.024
17 | AGAGGGGGGT | 0.99 ± 0.022
18 | TAAGGAAAAG | 1.01 ± 0.05
19 | TAGTGCAAGA | 1.0334 ± 0.00052
20 | AGCGGAACCC | 1.03 ± 0.023
21 | CAGTTTTCCC | 1.01 ± 0.016
22 | GAGGTTCATT | 1.09 ± 0.085
23 | ATGCATGGGG | 1.01 ± 0.017
24 | CTGGTTTATA | 0.962 ± 0.027
25 | GGTTTATCGT | 0.974 ± 0.022

Row | Sequence | switch fluorescence ratio
26 | TCCAGGGGTC | 1.38 ± 0.13
27 | GCGTTTTGTC | 0.96229 ± 0.00085
28 | TTTATCGTCT | 1.12 ± 0.068
29 | GTGCATGGGG | 1.02 ± 0.0056
30 | GTGGATTCAC | 0.98 ± 0.0096
31 | TTCGAAGGGC | 1.14 ± 0.16
32 | AATTTTGTTA | 0.976 ± 0.043
33 | CGTGACGGTT | 1.03 ± 0.062
34 | TTTTGAGACG | 1.09 ± 0.011
35 | TCGACCATCG | 0.974 ± 0.033
36 | AAGGGGTAGT | 0.997 ± 0.025
37 | CCTAATTGAA | 0.9728 ± 0.0041
38 | TACTTCATTT | 1.03 ± 0.041
39 | TGTGTGCCGG | 0.9332 ± 0.0057
40 | GATCCTGAAC | 1.37 ± 0.12
41 | TGGATACTTA | 1.02 ± 0.013
42 | ACGGAAATTT | 1.021 ± 0.0052
43 | ATCGGCATTT | 1.027 ± 0.0084
44 | CTGGGGGTA | 0.9889 ± 0.0083
45 | AGTAATTAGG | 1.027 ± 0.0043
46 | GAATCGATAC | 1.76 ± 0.084
47 | AGATAAACG | 0.984 ± 0.056
48 | GTTGAAGG | 0.9986 ± 0.0032
49 | TATGTCAAG | 1.02 ± 0.016
50 | TTTCGGTTAT | 1.02 ± 0.021

Row | Sequence | switch fluorescence ratio
51 | TACGAATAGG | 1.017 ± 0.0043
52 | TTTCATGGCG | 0.97893 ± 0.0002
53 | GTTGCAGCTG | 0.962 ± 0.037
54 | CGGGGGAGGG | 1.16 ± 0.45
55 | TCACGGGAAT | 1.02 ± 0.055
56 | ACCTGGGGAT | 1.028 ± 0.0099
57 | GTTACTGGCC | 1.01 ± 0.0068
58 | AGTGGGGTGG | 0.982 ± 0.043
59 | TATTATGAAT | 0.999 ± 0.0024
60 | AATTGTATAG | 0.9913 ± 0.0062
61 | GCGCTTGAAC | 1.15 ± 0.051
62 | TTTTGGGACT | 1.03 ± 0.019
63 | CGAGGGGGTA | 1.02 ± 0.077
64 | TGATATCTTG | 0.9862 ± 0.0028
65 | GGGGCCGGTC | 1 ± 0.016
66 | GGGATTGATC | 1.02 ± 0.021
67 | AATGAGGGGG | 0.978 ± 0.05
68 | TACGCCTGTG | 1.01 ± 0.037
69 | GCCCTTAGCG | 1.06 ± 0.073
70 | GCCAAACGGG | 1.13 ± 0.16
71 | TTATTCGTTG | 0.99 ± 0.025
72 | AGATACGGTG | 0.983 ± 0.044
73 | ATTTGCGAAT | 0.966 ± 0.039
74 | ACTGGATGCT | 0.995 ± 0.12
75 | GCATTATTTG | 1.05 ± 0.02

Row | Sequence | switch fluorescence ratio
76 | GGTGTGGGGT | 0.986 ± 0.02
77 | GTTAGGGGCA | 1 ± 0.072
78 | GCATCTAGAT | 0.986 ± 0.018
79 | TCGTTTTGAG | 0.971 ± 0.039
80 | TTCTCGTTGG | 1.02 ± 0.032
81 | TTTTGGCGAC | 0.976 ± 0.027
82 | TGGCTTGGCG | 1.01 ± 0.072
83 | CTTAATTATA | 1.01 ± 0.015
84 | TTTTACGAGT | 1.06 ± 0.16
85 | TTGTTCCCGT | 0.9839 ± 0.0013
86 | TAAGGGGACG | 1.02 ± 0.023
87 | TTCGTTTTTC | 0.956 ± 0.035
88 | GGTTTTTATT | 0.992 ± 0.0092
89 | CATTTGTGGA | 1.003 ± 0.0062
90 | TCTCGTGGGA | 1.01 ± 0.03
91 | GACTGGGGGG | 0.997 ± 0.041
92 | TCGTTTATCA | 0.9771 ± 0.0073
93 | ATAAGGAGTT | 1.01 ± 0.045
94 | AGGGCAGTTG | 0.97 ± 0.024
95 | CTTAGGGTAG | 1.01 ± 0.019
96 | TTAATATGGT | 0.99 ± 0.04
97 | GGTTACGCTA | 1.11 ± 0.074
98 | AGGAGTACTT | 1.02 ± 0.019
99 | GCGAAAAGGG | 1.024 ± 0.0069
100 | ATAAGGGGGT | 0.973 ± 0.016

From the supplement of paper PMC10126150
